Key:
purified protein [1] = substrate: CC(C)C[C@H](N)C(=O)O; assay: purified protein; conditions: oxidative deamination, co-substrate NAD+, 37 °C
purified protein [2] = substrate: CC(C)[C@H](N)C(=O)O; assay: purified protein; conditions: oxidative deamination, co-substrate NAD+, 37 °C
purified protein [3] = substrate: CC[C@H](C)[C@H](N)C(=O)O; assay: purified protein; conditions: oxidative deamination, co-substrate NAD+, 37 °C
purified protein [4] = substrate: NC(=O)c1ccc[n+]([C@@H]2O[C@H](COP(=O)(O)OP(=O)(O)OC[C@H]3O[C@@H](n4cnc5c(N)ncnc54)[C@H](O)[C@@H]3O)[C@@H](O)[C@H]2O)c1; assay: purified protein; conditions: 37 °C, amino acid co-substrate not given, varied: cofactor
SEC-MALS = target: the molecule itself; assay: SEC-MALS

B1: Leucine dehydrogenase from Pseudomonas aeruginosa (enzyme)
chain: MFDMMDAARLEGLHLAQDPATGLKAIIAIHSTRLGPALGGCRYLPYPNDEAAIGDAIRLAQGMSYKAALAGLEQGGGKAVIIRPPHLDNRGALFEAFGRFIESLGGRYITAVDSGTSSADMDCIAQQTRHVTSTTQAGDPSPHTALGVFAGIRASAQARLGSDDLEGLRVAVQGLGHVGYALAEQLAAVGAELLVCDLDPGRVQLAVEQLGAHPLAPEALLSTPCDILAPCGLGGVLTSQSVSQLRCAAVAGAANNQLERPEVADELEARGILYAPDYVINSGGLIYVALKHRGADPHSITAHLARIPARLTEIYAHAQADHQSPARIADRLAERILYGPQ
What does the source list for B1?
Km (purified protein [1]): 1100 ± 100 µM; Vmax (purified protein [1]): 21100 µM/min/mg; kcat (purified protein [1]): 5.2 ± 0.5 s⁻¹; kcat/Km (purified protein [1]): 4300 ± 700 M⁻¹ s⁻¹; Km (purified protein [2]): 500 ± 100 µM; Vmax (purified protein [2]): 35000 µM/min/mg; kcat (purified protein [2]): 9.6 ± 0.8 s⁻¹; kcat/Km (purified protein [2]): 14400 ± 900 M⁻¹ s⁻¹; Km (purified protein [3]): 400 ± 100 µM; Vmax (purified protein [3]): 7870 µM/min/mg; kcat (purified protein [3]): 1.8 ± 0.1 s⁻¹; kcat/Km (purified protein [3]): 5800 ± 400 M⁻¹ s⁻¹; Km (purified protein [4]): 200 ± 100 µM; Vmax (purified protein [4]): 23200 µM/min/mg; stoichiometry N (SEC-MALS): 2
